Measurements published in publication PMC9213720 (iScience, 2022).

Biological target: the molecule itself

B1: zSIGIRR-TIR (domain or fragment)
chain: KMYDAYISYVNNENDRKFVNFILKPHLENKYSHKLLLNNTNILPGAEPSAELLMNISRCQRLIVVLSQSYLEQEWCTTNFRQGLWHLIELSRKPIFIIFQSQQKQISQDISQQLRQHQPCITMITWGAHSMTPSSGFWKELALVMPRK
- stoichiometry N: 2
